Data taken from the Human Domainome abundance scans (Beltran et al. 2025).
± gives the uncertainty stated by the source.

Assay: abundance fitness (aPCA) (normalised: wild type 0, dead -1); higher = more abundant; growth selection in yeast, the domain comes from the species named
Conditions: Homo sapiens

Q: With “Scaffold attachment factor B1 G69E, Q15424” as the substance, how does the abundance fitness read?
A: The abundance fitness was -0.552 ± 0.086.

Q: Which abundance fitness does the source give for “Scaffold attachment factor B1 G69H, Q15424” here?
A: Its abundance fitness is -0.292 ± 0.11.

Q: With “Scaffold attachment factor B1 G69I, Q15424” as the substance, how does the abundance fitness read?
A: Its abundance fitness is -0.376 ± 0.084.

Q: For “Scaffold attachment factor B1 G69L, Q15424”, which abundance fitness is on record?
A: The abundance fitness was -0.558 ± 0.049.

Q: For “Scaffold attachment factor B1 G69M, Q15424”, which abundance fitness is on record?
A: The abundance fitness was -0.463 ± 0.096.

Q: Which abundance fitness does the source give for “Scaffold attachment factor B1 G69N, Q15424” here?
A: Its abundance fitness is -0.248 ± 0.099.

Q: With “Scaffold attachment factor B1 G69P, Q15424” as the substance, how does the abundance fitness read?
A: The abundance fitness was -0.419 ± 0.083.

Q: With “Scaffold attachment factor B1 G69R, Q15424” as the substance, how does the abundance fitness read?
A: Its abundance fitness is -0.25 ± 0.06.

Q: For “Scaffold attachment factor B1 G69S, Q15424”, which abundance fitness is on record?
A: The abundance fitness was -0.397 ± 0.071.

Q: For “Scaffold attachment factor B1 G69T, Q15424”, which abundance fitness is on record?
A: Its abundance fitness is -0.472 ± 0.077.

Q: Which abundance fitness does the source give for “Scaffold attachment factor B1 G69V, Q15424” here?
A: Its abundance fitness is -0.454 ± 0.079.

Q: Which abundance fitness does the source give for “Scaffold attachment factor B1 G69W, Q15424” here?
A: The abundance fitness was -0.658 ± 0.067.

Q: With “Scaffold attachment factor B1 G69Y, Q15424” as the substance, how does the abundance fitness read?
A: Its abundance fitness is -0.819 ± 0.19.

Q: Which abundance fitness does the source give for “Scaffold attachment factor B1 G70A, Q15424” here?
A: The abundance fitness was -0.278 ± 0.061.

Q: For “Scaffold attachment factor B1 G70C, Q15424”, which abundance fitness is on record?
A: Its abundance fitness is -0.259 ± 0.058.

Q: With “Scaffold attachment factor B1 G70D, Q15424” as the substance, how does the abundance fitness read?
A: Its abundance fitness is -0.354 ± 0.097.

Q: With “Scaffold attachment factor B1 G70E, Q15424” as the substance, how does the abundance fitness read?
A: The abundance fitness was -0.244 ± 0.072.

Q: With “Scaffold attachment factor B1 G70F, Q15424” as the substance, how does the abundance fitness read?
A: The abundance fitness was -0.406 ± 0.083.

Q: Which abundance fitness does the source give for “Scaffold attachment factor B1 G70H, Q15424” here?
A: Its abundance fitness is -0.467 ± 0.083.

Q: For “Scaffold attachment factor B1 G70K, Q15424”, which abundance fitness is on record?
A: Its abundance fitness is -0.207 ± 0.081.

Q: For “Scaffold attachment factor B1 G70L, Q15424”, which abundance fitness is on record?
A: The abundance fitness was -0.22 ± 0.051.

Q: Which abundance fitness does the source give for “Scaffold attachment factor B1 G70M, Q15424” here?
A: The abundance fitness was -0.307 ± 0.064.

Q: Which abundance fitness does the source give for “Scaffold attachment factor B1 G70N, Q15424” here?
A: Its abundance fitness is -0.511 ± 0.13.

Q: With “Scaffold attachment factor B1 G70Q, Q15424” as the substance, how does the abundance fitness read?
A: Its abundance fitness is -0.205 ± 0.068.

Q: Which abundance fitness does the source give for “Scaffold attachment factor B1 G70R, Q15424” here?
A: The abundance fitness was -0.196 ± 0.053.

Q: For “Scaffold attachment factor B1 G70S, Q15424”, which abundance fitness is on record?
A: Its abundance fitness is -0.197 ± 0.057.

Q: With “Scaffold attachment factor B1 G70T, Q15424” as the substance, how does the abundance fitness read?
A: Its abundance fitness is -0.408 ± 0.092.

Q: With “Scaffold attachment factor B1 G70W, Q15424” as the substance, how does the abundance fitness read?
A: The abundance fitness was -0.474 ± 0.055.

Q: Which abundance fitness does the source give for “Scaffold attachment factor B1 G70Y, Q15424” here?
A: Its abundance fitness is -0.483 ± 0.1.

Q: Which abundance fitness does the source give for “Scaffold attachment factor B1 I37C, Q15424” here?
A: Its abundance fitness is -0.281 ± 0.072.

Q: Which abundance fitness does the source give for “Scaffold attachment factor B1 I37D, Q15424” here?
A: The abundance fitness was -0.175 ± 0.075.

Q: Which abundance fitness does the source give for “Scaffold attachment factor B1 I37G, Q15424” here?
A: Its abundance fitness is -0.028 ± 0.05.

Q: With “Scaffold attachment factor B1 I37H, Q15424” as the substance, how does the abundance fitness read?
A: The abundance fitness was -0.186 ± 0.085.

Q: With “Scaffold attachment factor B1 I37K, Q15424” as the substance, how does the abundance fitness read?
A: The abundance fitness was -0.103 ± 0.076.

Q: Which abundance fitness does the source give for “Scaffold attachment factor B1 I37L, Q15424” here?
A: Its abundance fitness is -0.124 ± 0.056.

Q: Which abundance fitness does the source give for “Scaffold attachment factor B1 I37M, Q15424” here?
A: Its abundance fitness is -0.057 ± 0.061.

Q: With “Scaffold attachment factor B1 I37N, Q15424” as the substance, how does the abundance fitness read?
A: Its abundance fitness is -0.25 ± 0.078.

Q: Which abundance fitness does the source give for “Scaffold attachment factor B1 I37R, Q15424” here?
A: Its abundance fitness is -0.04 ± 0.054.

Q: Which abundance fitness does the source give for “Scaffold attachment factor B1 I37S, Q15424” here?
A: Its abundance fitness is -0.17 ± 0.054.

Q: Which abundance fitness does the source give for “Scaffold attachment factor B1 I37V, Q15424” here?
A: Its abundance fitness is -0.15 ± 0.06.

Q: With “Scaffold attachment factor B1 I37Y, Q15424” as the substance, how does the abundance fitness read?
A: The abundance fitness was -0.231 ± 0.059.

Q: For “Scaffold attachment factor B1 I65A, Q15424”, which abundance fitness is on record?
A: The abundance fitness was -0.596 ± 0.069.

Q: With “Scaffold attachment factor B1 I65C, Q15424” as the substance, how does the abundance fitness read?
A: The abundance fitness was -0.141 ± 0.087.

Q: For “Scaffold attachment factor B1 I65D, Q15424”, which abundance fitness is on record?
A: The abundance fitness was -0.706 ± 0.077.

Q: For “Scaffold attachment factor B1 I65E, Q15424”, which abundance fitness is on record?
A: Its abundance fitness is -0.497 ± 0.085.

Q: With “Scaffold attachment factor B1 I65F, Q15424” as the substance, how does the abundance fitness read?
A: The abundance fitness was -0.466 ± 0.099.

Q: For “Scaffold attachment factor B1 I65G, Q15424”, which abundance fitness is on record?
A: The abundance fitness was -0.564 ± 0.057.

Q: For “Scaffold attachment factor B1 I65H, Q15424”, which abundance fitness is on record?
A: Its abundance fitness is -0.917 ± 0.14.

Q: Which abundance fitness does the source give for “Scaffold attachment factor B1 I65K, Q15424” here?
A: Its abundance fitness is -0.434 ± 0.061.

Q: With “Scaffold attachment factor B1 I65L, Q15424” as the substance, how does the abundance fitness read?
A: The abundance fitness was -0.143 ± 0.049.

Q: Which abundance fitness does the source give for “Scaffold attachment factor B1 I65M, Q15424” here?
A: The abundance fitness was -0.312 ± 0.069.

Q: Which abundance fitness does the source give for “Scaffold attachment factor B1 I65N, Q15424” here?
A: The abundance fitness was -0.598 ± 0.089.

Q: With “Scaffold attachment factor B1 I65P, Q15424” as the substance, how does the abundance fitness read?
A: Its abundance fitness is -0.559 ± 0.051.

Q: Which abundance fitness does the source give for “Scaffold attachment factor B1 I65R, Q15424” here?
A: Its abundance fitness is -0.287 ± 0.045.

Q: With “Scaffold attachment factor B1 I65S, Q15424” as the substance, how does the abundance fitness read?
A: The abundance fitness was -0.577 ± 0.058.
